The assay concerns the target KDM4E (human).

Turning to “H2a(1–20)R3me2a (from UniProt P0C0S8 2-21) (peptide)”, the KM of KDM4E catalysed demethylation, formaldehyde dehydrogenase (FDH) coupled assay was 5.18 µM.

Turning to “H3(1–21)R2me2a (from UniProt P68431 2-22) (peptide)”, the KM of KDM4E catalysed demethylation, formaldehyde dehydrogenase (FDH) coupled assay was found to be 20.7 µM.

These data come from article PMC11603075.
